Source: the supplement of paper PMC9170038

Test system: MS2 coat protein
Test: apparent KD of MS2 coat protein; designed switch direction (-1 OFF switch, 1 ON switch): 1; higher = weaker reporter binding
Outline: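 Designed RNA switches with common flanks were made on Illumina chips by stalled E. coli RNA polymerase. Titration with SNAP-549-labelled MS2 coat protein doubled from 0.7 or 1.5 nM up to 3 µM. Apparent KD is each design's median over clusters after curve-fitting normalised fluorescence.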

[1] = input ligand: microRNA oligo, concentration not stated
[2] = Eterna round: R95, input ligand: FMN 200 uM
[3] = Eterna round: R95, input ligand: microRNA oligo, concentration not stated
[4] = Eterna round: R95, input ligand: none

Sequence	apparent KD of MS2 coat protein (input ligand: FMN 200 uM)	apparent KD of MS2 coat protein [1]	apparent KD of MS2 coat protein (input ligand: none)	apparent KD of MS2 coat protein [2]	apparent KD of MS2 coat protein [3]	apparent KD of MS2 coat protein [4]
AUUAAGAGCGUAGGAUAUGGGAAAGGAAGUGUACCAGAAGGACGAAUACAGCGUCCGGACAUGAGGAUCACCCAUGUAGGACGG [PowerStrip SSNG 1.18] (Eterna round: R96, puzzle: Same State NG 1)	10.4 nM	23.9 nM	56.2 nM			
GUGGUCAGACAUGAGGAUCACCCAUGUGGAAUAAAUAAGGAGAAGGAUAUGCAAUAUAGGAUAUAGUAGAAGGUCUGGUUGGUG (Eterna round: R96, puzzle: Same State NG 3)		63.4 nM				
GGGCCAGCCUGUGCUGGGCUUUAGCAUGCACAUGAGGAUCACCCAUGUCGUGUACAUGCUUUUUGCUCGUCUUUAAA [Photon Torp-08] (puzzle: Sensor for hsa-mir-208a)				80.2 nM	17.4 nM	84.1 nM
UUGGUGUAGAUACAGGAUAUGUUGCUUGUUACAUGAGGAUCACCCAUGUAUCUAUGAGAUUAAAUGCAGAAGGGUGCACAUCACU [salish99_ss2_r3_091] (puzzle: Same State 2)				52.9 nM	124 nM	169 nM
ACAUGAGAGUGAGGAUAUAUAGUACCUACAUGUGACAUGAGGAUCACCCAUGUGGUAAGUAUGACAUAGAAGGCACAGAUAUGU [Equivalance 100 - Jieux - Same State NG 2] (Eterna round: R96, puzzle: Same State NG 2)	37.9 nM	71.4 nM	84.2 nM			
UGGCUCAGAGCAGGAUAUAUGUGAUCACAUGAGGAUCACCCAUGUCUCGAGCUUCGGCUCGAGACAUAGAAGGGCUCUGAGCCA [SSNG2/3-B2] (Eterna round: R96, puzzle: Same State NG 2)	23.3 nM	21.8 nM	22.5 nM			
GCGAGCGUACUUGCUACAUGAGGAUCACCCAUGUUCGUUGGACAGGAUAUGGUACCGUUUCGGUACCAGAAGGGUUCAUCAUGU [JL SSNG3 3.75] (Eterna round: R96, puzzle: Same State NG 3)	356 nM	188 nM	278 nM			
UGGAUCUAGGCUUGCCUGGGUCCAUGUUGACAUGAGGAUCACCCAUGUGUAUUUUUUAAGCUUUUUGUUUGUCAACU [JL A Humble Attempt mod 9] (puzzle: Sensor for hsa-mir-208a)				28.3 nM	12.5 nM	29.3 nM
GGAGCCGGCCUAGGAUAUUUCAUAUAAAUACAUGAGGAUCACCCAUGUAGGCCAGAAGGCCUUGGGAAGAAGGAGGUCGGCUCC [Loop Effect - U25,U29] (Eterna round: R96, puzzle: Same State NG 2)	13 nM	20.4 nM	31.5 nM			
UAGUGAUUGCAAGGAUAUGCUUAUGUUUAAUUUUUUUUAAUAUCUAACAUGAGGAUCACCCAUGUGCAGAAGGUGCUUGAUUUG [JR_SSNG2_Sub075] (Eterna round: R96, puzzle: Same State NG 2)		54.2 nM				
AGUCCAGCCUGAGCUGGACAAAAGUAUGUACAUGAGGAUCACCCAUGUCAUGUACAAGCUUUUUGCUCGUUUUAAUA [Zipper 49 - 17] (puzzle: Sensor for hsa-mir-208a)				424 nM	33.8 nM	517 nM
GCCGGCUAAUGAGGAUAUGGCACCUUAUUGGUGCCAGAAGGCAUGUCAAUUGACAUGAGGAUCACCCAUGUAUUAUAGUUGGCG [salish99_SSNG1_r04_603] (Eterna round: R96, puzzle: Same State NG 1)		211 nM				
ACAUGAGGAUCACCCAUGUAACCAAGAGAGAGAGCACGGACGCAGGAUAUGCGGCGACGAGCGGAGCAGAAGGGCGCCUCAUAU [Alacarus NG 3 Attempt 1] (Eterna round: R96, puzzle: Same State NG 3)	79.3 nM	52 nM	109 nM			
UAGCAGUGCGGGUAGGAUAUGUAGGGUGGUACAUGAGGAUCACCCAUGUAUCCACCCUUCGACCGGCAGAAGGGCCUGUCACUGC [Edor] (Eterna round: R96, puzzle: Same State 2)		13.2 nM				
GGAGCCGGCCUAGGAUAUUUCAUAAAACAACAUGAGGAUCACCCAUGUAGGCCAGAAGGCCUUGGGAAGAAGGAGGUCGGCUCC [Loop Effect - C28] (Eterna round: R96, puzzle: Same State NG 2)	10.2 nM	19.7 nM	28.4 nM			
UUGAAGAAUUAAGGAUAUUGAAUACAUAUGUUUAACAUGAGGAUCACCCAUGUGGGUUGCGGUAUCGAGAAGGUAAAUUACUAG [JL SSNG2 1.49] (Eterna round: R96, puzzle: Same State NG 2)	112 nM	76.3 nM	119 nM			

Sequence	apparent KD of MS2 coat protein (input ligand: FMN 200 uM)	apparent KD of MS2 coat protein [1]	apparent KD of MS2 coat protein (input ligand: none)	apparent KD of MS2 coat protein [2]	apparent KD of MS2 coat protein [3]	apparent KD of MS2 coat protein [4]
GACCGCGAGGAAGGAUAUGGAGCCUUAUUGGCUCCAGAAGGUCCAUAAAGGACAUGAGGAUCACCCAUGUGGUGAGAAGCGGUC [Fiskers NG1ss - 27] (Eterna round: R96, puzzle: Same State NG 1)		788 nM				
GACCGCGAGGAAGGAUAUGGAGCCUUAUUGGCUCCAGAAGGUCCAUAAAGGACAUGAGGAUCACCCAUGUGGUGUGAAGCGGUC [Fiskers NG1ss - 18] (Eterna round: R96, puzzle: Same State NG 1)	65.5 nM	407 nM	627 nM			
CCGAUUGAUGGAGGAUAUGGAGCCUUAUUGGCUCCAGAAGGCUAAUAACAUGAGGAUCACCCAUGUCGGCGGUCUAAUGACCGA [Eli NG1ss - 54] (Eterna round: R96, puzzle: Same State NG 1)	36.1 nM	57.5 nM	69.1 nM			
CUGAGCAAUCUAGGAUAUCACGUCGAAUAGACGUGAGAAGGAGAUCAUAACAUGAGGAUCACCCAUGUAUUACAUGAAGCUCAG [SSNG1/7-A1] (Eterna round: R96, puzzle: Same State NG 1)	13.4 nM	11.6 nM	17.9 nM			
GUAGAUGUAGAGGAGGAUAUUCAAUGAGGAACAUGAGGAUCACCCAUGUAAGAGAGAGAUGAUGAGAAGAAGGCUUAGAGAGAUG [Altered State 2-2 - Jieux - Same State 2] (puzzle: Same State 2)				32.3 nM	31.3 nM	46 nM
GGUGCCAAAUAAGCCUACAUGAGGAUCACCCAUGUAUGUAGGCAGGAUAUCGUUUGCAAAGCAAACGAGAAGGGCCUAGGCACC [Mat - Same State NG 3 - JL Mod - D62] (Eterna round: R96, puzzle: Same State NG 3)	19.1 nM	18.5 nM	35.2 nM			
AACAAUCUAUCUGAGGAUAUCAUUAAAUAAACAUGAGGAUCACCCAUGUGCAGGAAAACUGCAUAUGAGAAGGCAGAUAGAUUGA [salish99_ss2_r3_029] (puzzle: Same State 2)				12.3 nM	46.2 nM	55.2 nM
ACAAGCUUUUCUGUAUUGAAAGGUGGGAUACAUGAGGAUCACCCAUGUUUUUUUGUUUAUUUUUUUCCUCGUCUUAU [JR_SHM208A_Sub088] (Eterna round: R96, puzzle: Sensor for hsa-mir-208a)	46 nM	36.5 nM	37.2 nM			
GGUCGGACUCAACAUGAGGAUCACCCAUGUGCGGAAACGCCAUAGGAUAUCUGUCCGAAAAGGUCAGAGAAGGGUGAACCGACC [Fiskers NG3ss - 66] (Eterna round: R96, puzzle: Same State NG 3)	435 nM	263 nM	471 nM			
UUGCUCGUGUGAGGAUAUGCCGCCGUUUCGGCUGCAGAAGGUACUCUUUUACAUGAGGAUCACCCAUGUCUCUGUUGUUUCGUG [salish99_SSNG1_r04_937] (Eterna round: R96, puzzle: Same State NG 1)	252 nM	96.4 nM	148 nM			
GGAGCCUGCACUGAGGAUAUUCAUAGUGUAACAUGAGGAUCACCCAUGUGUCGCCGUAGCGACUGGGAGAAGGCAGUGCGGCUCG [JL-ss2-3.06 ViennaUCT mod] (puzzle: Same State 2)				38.4 nM	180 nM	325 nM
GUAGCAUACCGAGGAUAUUCAUUACAUGAGGAUCACCCAUGUUAGGCCAGCAUUAGCUGGCCUUGGGAGAAGGCGGAAUGCUAC [Xeonanis - 20 Mod53] (Eterna round: R96, puzzle: Same State NG 2)	14 nM	29.1 nM	37.8 nM			
GUAGCAUACCGAGGAUAUUCAUAUUAACAUGAGGAUCACCCAUGUUUUUAGGCCAAAAGGCCUUGGGAGAAGGCGGAAUGCUAC [Xeonanis - 20 Mod6] (Eterna round: R96, puzzle: Same State NG 2)	11.4 nM	12.8 nM	16.1 nM			
GCGAGCGUACUUGCUACAUGAGGAUCACCCAUGUCUGUUGGACAGGAUAUGGUACCGUUUCGGUACCAGAAGGGUUCAUCAUGU [JL SSNG3 3.74] (Eterna round: R96, puzzle: Same State NG 3)	439 nM	74 nM	262 nM			
AGUCCAGCCUGAGCUGGACAAAAGCAUGUACAUGAGGAUCACCCAUGUCAUGUACAAGCUUUUUGCACGUCUUAAAA [Mat - hsa-mir-208a - Mod of JL - D13] (puzzle: Sensor for hsa-mir-208a)				1120 nM	16.4 nM	542 nM
